{"source": "patent US20250084155A1", "about": "(University of Texas, published 2025)", "data": [{"target": "T1, HSP70 (human HSP70; the antigen of the binning, humanization and variant binding assays) (human, UniProt P0DMV8 1-641, limits assumed)", "T1 construct": "also called hu HSP70", "T1 sequence (P0DMV8 whole entry, change not shown)": "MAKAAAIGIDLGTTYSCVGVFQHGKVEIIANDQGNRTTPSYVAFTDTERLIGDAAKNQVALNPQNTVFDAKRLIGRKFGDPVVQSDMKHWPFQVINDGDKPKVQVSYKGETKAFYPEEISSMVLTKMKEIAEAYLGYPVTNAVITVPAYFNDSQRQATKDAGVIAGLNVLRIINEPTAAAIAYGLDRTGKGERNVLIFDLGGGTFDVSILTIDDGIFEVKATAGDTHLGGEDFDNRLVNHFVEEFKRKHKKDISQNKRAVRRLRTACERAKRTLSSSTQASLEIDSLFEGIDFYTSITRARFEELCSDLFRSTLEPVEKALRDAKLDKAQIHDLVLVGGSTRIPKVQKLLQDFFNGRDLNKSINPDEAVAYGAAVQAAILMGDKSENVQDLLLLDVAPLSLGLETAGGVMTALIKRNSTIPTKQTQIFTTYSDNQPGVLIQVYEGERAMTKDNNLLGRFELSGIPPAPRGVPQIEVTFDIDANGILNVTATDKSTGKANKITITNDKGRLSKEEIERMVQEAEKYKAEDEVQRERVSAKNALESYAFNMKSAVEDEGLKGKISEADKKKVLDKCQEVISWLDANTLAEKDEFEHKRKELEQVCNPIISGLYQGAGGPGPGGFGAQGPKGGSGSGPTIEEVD", "test": "BLI, anti-human Fc capture, antigen 100 nM", "description": "Binding assays were performed as follows. Antibody variants were immobilized using anti-human Fc onto the surface of a series of biosensors at […]. Antigen, at 100 nM, was passed over the surface to generate a binding response. Binding data for the antibody:antigen interactions were collected at 25° C. on the biosensors. In Table 14, X=610 represents captured antigen value (nM) at the beginning of the dissociation phase (measured at 610 seconds after the biosensor was initially contacted with antigen) and X=1495 represents captured antigen value (nM) at the end of the dissociation phase (measured at 1495 seconds after the biosensor was initially contacted with antigen). In Table 14, antibodies with an X=610 value greater than 0.2 and a % dissociation less than 10% are shown in bold.", "units": {"% Diss": "%"}, "values": [{"binder": "h77A-1.2 (antibody, V domains shown, captured by anti-human Fc) VH: QIQLVQSGAEVKKPGASVKVSCKASGYTFTNYGMNWVRQAPGQGLEWMGWINTYTGEPRYADDFKGRFTFTTDTSTSTAYMELRSLRSDDTAVYFCARYDHAMDYWGQGTLVTVSS VL: EIVLTQSPDSLAVSLGERATINCKSSQSLLNSGTRKNYLAWYQQKAGQSPKLLIYWTSTRESGVPDRFSGSGSGTDFTLTIDSLQAEDVAVYYCKQSYTLYTFGGGTKVEIK", "% Diss": -1.81}, {"binder": "h77A-1.3 (antibody, V domains shown, captured by anti-human Fc) VH: QIQLVQSGAEVKKPGASVKVSCKASGYTFTNYGMNWVRQAPGQGLEWMGWINTYTGEPTYADDFKGRFTFTTDTSTSTAYMELRSLRSDDTAVYFCARYDHRMDYWGQGTLVTVSS VL: EIVLTQSPDSLAVSLGERATINCKSSQSLLNSGTRKNYLAWYQQKAGQSPKLLIYWTSTRESGVPDRFSGSGSGTDFTLTIDSLQAEDVAVYYCKQSYTLYTFGGGTKVEIK", "% Diss": 28.7}, {"binder": "h77A-1.4 (antibody, V domains shown, captured by anti-human Fc) VH: QIQLVQSGAEVKKPGASVKVSCKASGYTFTNYGMNWVRQAPGQGLEWMGWINTYTGEPIYADDFKGRFTFTTDTSTSTAYMELRSLRSDDTAVYFCARYDHAMDYWGQGTLVTVSS VL: EIVLTQSPDSLAVSLGERATINCKSSQSLLNSGTRKNYLAWYQQKAGQSPKLLIYWTSTRESGVPDRFSGSGSGTDFTLTIDSLQAEDVAVYYCKQSYTLYTFGGGTKVEIK", "% Diss": 31.8}, {"binder": "h77A-1.5 (antibody, V domains shown, captured by anti-human Fc) VH: QIQLVQSGAEVKKPGASVKVSCKASGYTFTNYGMNWVRQAPGQGLEWMGWINTYTGEPTYADDFKGRFTFTTDTSTSTAYMELRSLRSDDTAVYFCARYDHAMDYWGQGTLVTVSS VL: EIVLTQSPDSLAVSLGERATINCKSSQSLLNSGTRKNYLAWYQQKAGQSPKLLIYWTSTRESGVPDRFSGSGSGTDFTLTIDSLQAEDVAVYYCKQSYNLYTFGGGTKVEIK", "% Diss": 25.3}, {"binder": "h77A-1.7 (antibody, V domains shown, captured by anti-human Fc) VH: QIQLVQSGAEVKKPGASVKVSCKASGYTFTNYGMNWVRQAPGQGLEWMGWINTYTGEPTYADDFKGRFTFTTDTSTSTAYMELRSLRSDDTAVYFCARYDHFMDYWGQGTLVTVSS VL: EIVLTQSPDSLAVSLGERATINCKSSQSLLNSGTRKNYLAWYQQKAGQSPKLLIYWTSTRESGVPDRFSGSGSGTDFTLTIDSLQAEDVAVYYCKQSYTLYTFGGGTKVEIK", "% Diss": 30.2}, {"binder": "h77A-1.9 (antibody, V domains shown, captured by anti-human Fc) VH: QIQLVQSGAEVKKPGASVKVSCKASGYTFTNYGMNWVRQAPGQGLEWMGWINTYTGEPTYADDFKGRFTFTTDTSTSTAYMELRSLRSDDTAVYFCARYDHTMDYWGQGTLVTVSS VL: EIVLTQSPDSLAVSLGERATINCKSSQSLLNSGTRKNYLAWYQQKAGQSPKLLIYWTSTRESGVPDRFSGSGSGTDFTLTIDSLQAEDVAVYYCKQSYTLYTFGGGTKVEIK", "% Diss": 18.3}, {"binder": "h77A-1.11 (antibody, V domains shown, captured by anti-human Fc) VH: QIQLVQSGAEVKKPGASVKVSCKASGYTFTNYGMNWVRQAPGQGLEWMGWINTYTGEPTYADDFKGRFTFTTDTSTSTAYMELRSLRSDDTAVYFCARYDHAMDYWGQGTLVTVSS VL: EIVLTQSPDSLAVSLGERATINCKSSQSLLNSGTRKNYLAWYQQKPGQSPKLLIYWTSTRESGVPDRFSGSGSGTDFTLTIDSLQAEDVAVYYCKQSYTLYTFGGGTKVEIK", "% Diss": 10.7}, {"binder": "h77A-1.13 (antibody, V domains shown, captured by anti-human Fc) VH: QIQLVQSGAEVKKPGASVKVSCKASGYTFTNYGMNWVRQAPGQGLEWMGWINTYTGEPTYADDFKGRFTFTTDTSTSTAYMELRSLRSDDTAVYFCARYDHPMDYWGQGTLVTVSS VL: EIVLTQSPDSLAVSLGERATINCKSSQSLLNSGTRKNYLAWYQQKAGQSPKLLIYWTSTRESGVPDRFSGSGSGTDFTLTIDSLQAEDVAVYYCKQSYTLYTFGGGTKVEIK", "% Diss": 13.4}, {"binder": "h77A-1.15 (antibody, V domains shown, captured by anti-human Fc) VH: QIQLVQSGAEVKKPGASVKVSCKASGYTFTNYGMNWVRQAPGQGLEWMGWINTYTGEPTYADDFKGRFTFTTDTSTSTAYMELRSLRSDDTAVYFCARYDHVMDYWGQGTLVTVSS VL: EIVLTQSPDSLAVSLGERATINCKSSQSLLNSGTRKNYLAWYQQKAGQSPKLLIYWTSTRESGVPDRFSGSGSGTDFTLTIDSLQAEDVAVYYCKQSYTLYTFGGGTKVEIK", "% Diss": 33}, {"binder": "h77A-1.20 (antibody, V domains shown, captured by anti-human Fc) VH: QIQLVQSGDEVKKPGASVKVSCKASGYTFTNYGMNWVRQAPGQGLEWMGWINTYTGEPTYSDDFKGRFTFTTDTSTSTAYMELRSLRSDDTAVYFCARYDHAMDYWGQGTLVTVSS VL: EIVLTQSPDSLAVSLGERATINCKSSQSLLNSGTRKNYLAWYQQKAGQSPKLLIYWTSTRESGVPDRFSGSGSGTDFTLTIDSLQAEDVAVYYCKQSYTLYTFGGGTKVEIK", "% Diss": 12.1}, {"binder": "h77A-1.21 (antibody, V domains shown, captured by anti-human Fc) VH: QIQLVQSGDEVKKPGASVKVSCKASGYTFTNYGMNWVRQAPGQGLEWMGWINTYTGEPTYADDFKGRFTFTTDTSTSTAYMELRSLRSDDTAVYFCARYDHAMDYWGQGTLVTVSS VL: EIVLTQSPDSLAVSLGERATINCKSSQSLLNSGTRKNYLAWYQQKAGQSPKLLIYWTSTRESGVPDRFSGSGSGTDFTLSIDSLQAEDVAVYYCKQSYTLYTFGGGTKVEIK", "% Diss": 10}, {"binder": "h77A-1.23 (antibody, V domains shown, captured by anti-human Fc) VH: QIQLVQSGAEVKKPGASVKVSCKASGYTFTNYGMNWVRQAPGQGLEWMGWINTYTGEPTYADDFKGRFTFTTDTSTSTAYMELRSLRSDDTAVYFCARYDHAMDYWGQGTLVTVSS VL: EIVLTQSPDSLAVSLGERATINCKSSQSLLNSGTRKNYLSWYQQKAGQSPKLLIYWTSTRESGVPDRFSGSGSGTDFTLTIDSLQAEDVAVYYCKQSYSLYTFGGGTKVEIK", "% Diss": 24}, {"binder": "h77A-1.24 (antibody, V domains shown, captured by anti-human Fc) VH: QIQLVQSGAEVKKPGASVKVSCKASGYTFTNYGMNWVRQAPGQGLEWMGWINTYTGEPTYADDFKGRFTFTTDTSTSTAYMELRSLRSDDTAVYFCARYDHRMDYWGQGTLVTVSS VL: EIVLTQSPDSLAVSLGERATINCKSSQSLLNSGTRKNYLTWYQQKAGQSPKLLIYWTSTRESGVPDRFSGSGSGTDFTLTIDSLQAEDVAVYYCKQSYTLYTFGGGTKVEIK", "% Diss": 33.6}, {"binder": "h77A-1.25 (antibody, V domains shown, captured by anti-human Fc) VH: QIQLVQSGAEVKKPGASVKVSCKASGYTFTNYGMNWVRQAPGQGLEWMGWINTYTGEPTYADDFKGRFTFTTDTSTSTAYMELRSLRSDDTAVYFCARYDHFMDYWGQGTLVTVSS VL: EIVLTQSPDSLAVSLGERATINCKSSQSLLNSGTRKNYLAWYQQKAGQSPKLLIYWTSTRESGVPDRFSGSGSGTDFTLTIDSLQAEDVAIYYCKQSYTLYTFGGGTKVEIK", "% Diss": 23.2}, {"binder": "h77A-1.26 (antibody, V domains shown, captured by anti-human Fc) VH: QIQLVQSGAEVKKPGASVKVSCKASGYTFTNYGMNWVRQAPGQGLEWMGWINTYTGEPTYADDFKGRFTFTTDTSTRTAYMELRSLRSDDTAVYFCTRYDHAMDYWGQGTLVTVSS VL: EIVLTQSPDSLAVSLGERATINCKSSQSLLNSGTRKNYLAWYQQKAGQSPKLLIYWTSTRESGVPDRFSGSGSGTDFTLTIDSLQAEDVAVYYCKQSYTLYTFGGGTKVEIK", "% Diss": 11.8}, {"binder": "h77A-1.28 (antibody, V domains shown, captured by anti-human Fc) VH: QIQLVQSGTEVKKPGASVKVSCKASGYTFTNYGMNWVRQAPGQGLEWMGWINTYTGEPTYADDFKGRFTFTTDTSTSTAYMELRSLRSDDTAVYFCARYDHTMDYWGQGTLVTVSS VL: EIVLTQSPDSLAVSLGERATINCKSSQSLLNSGTRKNYLAWYQQKAGQSPKLLIYWTSTRESGVPDRFSGSGSGTDFTLTIDSLQAEDVAVYYCKQSYTLYTFGGGTKVEIK", "% Diss": 18.8}, {"binder": "h77A-1.29 (antibody, V domains shown, captured by anti-human Fc) VH: QIQLVQSGAEVKKPGASVKVSCKASGYTFTNYGMNWVRQAPGQGLEWMGWINTYTGEPTYADDFKGRFTFTTDTSTSTAYMELRSLRSDDTAVYFCARYDHFMDYWGQGTLVTVSS VL: EIVLTQSPDSLAVSLGERATINCKSSQSLFNSGTRKNYLAWYQQKAGQSPKLLIYWTSTRESGVPDRFSGSGSGTDFTLTIDSLQAEDVAVYYCKQSYTLYTFGGGTKVEIK", "% Diss": 28.3}, {"binder": "h77A-1.31 (antibody, V domains shown, captured by anti-human Fc) VH: QIQLVQSGAEVKKPGASVKVSCKASGYTFTNYGMNWVRQAPGQGLEWMGWINTYTGEPTYADDFKGRFTFTTDTSTSTAYMELRSLRSDDTAVYFCARYDHPMDYWGQGTLVTVSS VL: EIVLTQSPDSLAVSLGERATINCKSSQSLLNSGTRKNYLAWYQQKAGQSPKLLIYWTSTRESGVPDRFSGSGSGTDFTLTIDRLQAEDVAVYYCKQSYTLYTFGGGTKVEIK", "% Diss": -3.52}, {"binder": "h77A-1.33 (antibody, V domains shown, captured by anti-human Fc) VH: QIQLVQSGAEVKKPGASVKVSCKASGYTFTKYGMNWVRQAPGQGLEWMGWINTYTGEPTYADDFKGRFTFTTDTSTSTAYMELRSLRSDDTAVYFCARYDHNMDYWGQGTLVTVSS VL: EIVLTQSPDSLAVSLGERATINCKSSQSLLNSGTRKNYLAWYQQKAGQSPKLLIYWTSTRESGVPDRFSGSGSGTDFTLTIDSLQAEDVAVYYCKQSYTLYTFGGGTKVEIK", "% Diss": 20.6}, {"binder": "h77A-1.35 (antibody, V domains shown, captured by anti-human Fc) VH: QIQLVQSGTEVKKPGASVKVSCKASGYTFTNYGMNWVRQAPGQGLEWMGWINTYTGEPTYADDFKGRFTFTTDTSTSTAYMELRSLRSDDTAVYFCARYDHHMDYWGQGTLVTVSS VL: EIVLTQSPDSLTVSLGERATINCKSSQSLLNSGTRKNYLAWYQQKAGQSPKLLIYWTSTRESGVPDRFSGSGSGTDFTLTIDSLQAEDVAVYYCKQSYTLYTFGGGTKVEIK", "% Diss": 4.38}, {"binder": "h77A-1.36 (antibody, V domains shown, captured by anti-human Fc) VH: QIQLVQSGAEVKKPGASVKVSCKASGYTFTNYGMNWVRQAPGQGLEWMGWINTYTGEPTYADDFKGRFTFTTDTSTTTAYMELRSLRSDDTAVYFCARYDHHMDYWGQGTLVTVSS VL: EIVLTQSPDSLAVSLGERATINCKSSQSLFNSGTRKNYLAWYQQKAGQSPKLLIYWTSTRESGVPDRFSGSGSGTDFTLTIDSLQAEDVAVYYCKQSYTLYTFGGGTKVEIK", "% Diss": 6.96}]}]}
